Assay results from the supplement of paper PMC10065799, “High-throughput profiling of sequence recognition by tyrosine kinases and SH2 domains using bacterial peptide display” (eLife, 2023).

Each sequence was assayed against Fyn (UniProt P06241) (assay: phosphorylation enrichment, bacterial display (enrichment ratio); higher = better substrate or ligand; peptides without Tyr show the background).
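Wherever SH2 binding enrichment of the phosphorylated peptide, bacterial display is given: peptide library displayed on the E. coli surface as eCPX fusions, selected cells deep-sequenced, score is each peptide's frequency after selection divided by its frequency in the input.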
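Wherever phosphorylation enrichment, bacterial display is given: 11-residue human phosphosite peptides and single-mutation variants displayed on the E. coli surface, counted by deep sequencing, each peptide's frequency after selection divided by its frequency in the unselected input library; frequency after pTyr selection over input frequency; kinase dosed for 20-30% of maximal phosphorylation in three min.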

Sequence of Fyn (P06241 whole entry, looked up, the tested form may be a part): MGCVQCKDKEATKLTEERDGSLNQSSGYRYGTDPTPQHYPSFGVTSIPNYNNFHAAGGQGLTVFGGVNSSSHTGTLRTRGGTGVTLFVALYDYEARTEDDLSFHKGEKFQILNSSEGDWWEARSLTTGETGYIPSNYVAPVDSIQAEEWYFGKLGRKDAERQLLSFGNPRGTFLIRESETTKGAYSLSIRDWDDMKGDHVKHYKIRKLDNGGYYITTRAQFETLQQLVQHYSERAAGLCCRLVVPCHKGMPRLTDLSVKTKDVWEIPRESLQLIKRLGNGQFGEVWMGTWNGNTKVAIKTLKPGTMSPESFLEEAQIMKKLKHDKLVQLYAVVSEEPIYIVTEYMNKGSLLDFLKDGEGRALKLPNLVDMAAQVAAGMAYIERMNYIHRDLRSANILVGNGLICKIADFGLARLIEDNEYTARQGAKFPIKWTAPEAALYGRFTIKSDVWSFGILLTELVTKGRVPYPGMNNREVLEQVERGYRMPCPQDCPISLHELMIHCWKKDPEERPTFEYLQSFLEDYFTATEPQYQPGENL

First: THPFLYLTLEI [MLH1_Y293_S295T]
Second: AEKPKYQISNI [TJP1_Y1602_N1605S]
The phosphorylation enrichment of the first is higher: 0.473 for the first, 0.372 for the second.

Compared with KRLFAYKMLMA [TMC2_Y209_Q205R_YF], GAVDTYCRHNF [HLA-DRB1_Y107_A102G_YF] is higher in phosphorylation enrichment: 0.433 for the first, 0.479 for the second.

Going from VHFARYLAMNK [HARS1_Y138_P134H] to DPLLTYQFPPK [LMNA_Y481_R482Q], the phosphorylation enrichment rises from 0.557 to 1.24.

First: WKESWYSMRKM [FGB_Y475_G472E]
Second: WCSNDYLGMSQ [ALAS2_Y199_R204Q]
The phosphorylation enrichment of the first is higher: 0.554 for the first, 0.541 for the second.

Going from IVGLLYRLLTE [SETX_Y1978] to PSDSGYSYETI [MAP1B_Y1921], the phosphorylation enrichment rises from 0.436 to 0.599.

Compared with RGFDTYFGFLL [ARSB_Y165_YF], YRKNIYNVKST [SYNE2_Y575] is lower in phosphorylation enrichment: 8.78 for the first, 0.458 for the second.

First: TTKVSYRASQP [MKI67_Y1737]
Second: LARDMCDKEFF [MET_Y1230_Y1230C_YF]
The phosphorylation enrichment of the first is lower: 0.311 for the first, 0.513 for the second.

Going from CTIIHYNFMCN [TP53_Y234_T231I_YF] to PSQRCYVYYYS [PTEN_Y174_R173C], the phosphorylation enrichment rises from 0.482 to 1.09.

First: GQRDLYSGLNQ [CD3E_Y199]
Second: PEPHIYAVADV [MYO9A_Y216_L211P]
The phosphorylation enrichment of the first is higher: 6.14 for the first, 3.21 for the second.

Compared with FEAMEYLESKQ [BTK_Y511_C506Y_YF], YSNVLYRPRGP [TMIGD2_Y197_A202P] is higher in phosphorylation enrichment: 0.499 for the first, 0.501 for the second.

Compared with YPKARYRWLVL [APTX_Y214_H215R], YKGKKYKPLDL [RPL35_Y78] is higher in phosphorylation enrichment: 0.464 for the first, 0.511 for the second.

First: TGDVQYRSSVR [FREM2_Y2158]
Second: LNTFHHAGVSA [POLR2A_Y1109_Y1109H]
The phosphorylation enrichment of the first is lower: 0.331 for the first, 0.356 for the second.

Compared with AQMAMYFWEMS [TRPM4_Y577_G582S], VTVLDYDKIGK [SYT1_Y365] is lower in phosphorylation enrichment: 1.15 for the first, 0.343 for the second.

Compared with TQNGVYSAANF [DDX5_Y535_YF], CYCSWYRGWAP [TIMP3_Y195_G190C] is lower in phosphorylation enrichment: 7.62 for the first, 0.721 for the second.

Compared with WQQQSYLDFGI [CTNNB1_Y30_S33F], TYGNLYGSRKQ [YIPF7_Y59_A54T] is higher in phosphorylation enrichment: 0.524 for the first, 6.14 for the second.

Compared with GPGSGYTNIMR [PKLR_Y564_R559G], HNGVSYFINLC [IGF2R_Y2024_YF] is higher in phosphorylation enrichment: 0.391 for the first, 0.659 for the second.

With RKIMGYSIRTI [IDS_Y490_I485R] the phosphorylation enrichment was 0.591.

The sequences below were run against SHP2-C SH2 (assay: SH2 binding enrichment of the phosphorylated peptide, bacterial display (enrichment ratio); higher = better substrate or ligand; peptides without Tyr show the background).

Compared with THPFLYLTLEI [MLH1_Y293_S295T], AEKPKYQISNI [TJP1_Y1602_N1605S] is lower in SH2 binding enrichment: 0.688 for the first, 0.516 for the second.

Compared with KRLFAYKMLMA [TMC2_Y209_Q205R_YF], GAVDTYCRHNF [HLA-DRB1_Y107_A102G_YF] is lower in SH2 binding enrichment: 1.98 for the first, 0.809 for the second.

Going from VHFARYLAMNK [HARS1_Y138_P134H] to DPLLTYQFPPK [LMNA_Y481_R482Q], the SH2 binding enrichment falls from 0.72 to 0.657.

Going from WKESWYSMRKM [FGB_Y475_G472E] to WCSNDYLGMSQ [ALAS2_Y199_R204Q], the SH2 binding enrichment falls from 0.969 to 0.738.

Going from IVGLLYRLLTE [SETX_Y1978] to PSDSGYSYETI [MAP1B_Y1921], the SH2 binding enrichment falls from 1.37 to 0.523.

Compared with RGFDTYFGFLL [ARSB_Y165_YF], YRKNIYNVKST [SYNE2_Y575] is lower in SH2 binding enrichment: 0.828 for the first, 0.581 for the second.

Compared with TTKVSYRASQP [MKI67_Y1737], LARDMCDKEFF [MET_Y1230_Y1230C_YF] is lower in SH2 binding enrichment: 0.83 for the first, 0.676 for the second.

Going from CTIIHYNFMCN [TP53_Y234_T231I_YF] to PSQRCYVYYYS [PTEN_Y174_R173C], the SH2 binding enrichment falls from 1.73 to 0.645.

Going from GQRDLYSGLNQ [CD3E_Y199] to PEPHIYAVADV [MYO9A_Y216_L211P], the SH2 binding enrichment rises from 0.574 to 0.654.

Compared with FEAMEYLESKQ [BTK_Y511_C506Y_YF], YSNVLYRPRGP [TMIGD2_Y197_A202P] is higher in SH2 binding enrichment: 0.635 for the first, 4.56 for the second.

First: YPKARYRWLVL [APTX_Y214_H215R]
Second: YKGKKYKPLDL [RPL35_Y78]
The SH2 binding enrichment of the first is higher: 1.02 for the first, 0.955 for the second.

First: TGDVQYRSSVR [FREM2_Y2158]
Second: LNTFHHAGVSA [POLR2A_Y1109_Y1109H]
The SH2 binding enrichment of the first is lower: 0.631 for the first, 0.65 for the second.

Going from AQMAMYFWEMS [TRPM4_Y577_G582S] to VTVLDYDKIGK [SYT1_Y365], the SH2 binding enrichment falls from 1.08 to 0.777.

Compared with TQNGVYSAANF [DDX5_Y535_YF], CYCSWYRGWAP [TIMP3_Y195_G190C] is higher in SH2 binding enrichment: 0.611 for the first, 1.26 for the second.

First: WQQQSYLDFGI [CTNNB1_Y30_S33F]
Second: TYGNLYGSRKQ [YIPF7_Y59_A54T]
The SH2 binding enrichment of the first is lower: 0.776 for the first, 0.945 for the second.

First: GPGSGYTNIMR [PKLR_Y564_R559G]
Second: HNGVSYFINLC [IGF2R_Y2024_YF]
The SH2 binding enrichment of the first is higher: 7.01 for the first, 0.573 for the second.

For RKIMGYSIRTI [IDS_Y490_I485R], the SH2 binding enrichment was 0.718.

The sequences below were run against Grb2 SH2 (UniProt P62993) in the same assay as above.
Sequence of Grb2 SH2 (P62993 whole entry, looked up): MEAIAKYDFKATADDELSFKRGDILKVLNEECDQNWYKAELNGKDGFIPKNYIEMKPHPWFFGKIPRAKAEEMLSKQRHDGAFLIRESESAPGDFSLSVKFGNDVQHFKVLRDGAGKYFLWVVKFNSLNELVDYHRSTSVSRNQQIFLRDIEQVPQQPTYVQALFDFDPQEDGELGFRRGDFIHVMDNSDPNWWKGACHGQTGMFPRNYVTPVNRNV

First: THPFLYLTLEI [MLH1_Y293_S295T]
Second: AEKPKYQISNI [TJP1_Y1602_N1605S]
The SH2 binding enrichment of the first is higher: 0.873 for the first, 0.739 for the second.

Compared with KRLFAYKMLMA [TMC2_Y209_Q205R_YF], GAVDTYCRHNF [HLA-DRB1_Y107_A102G_YF] is lower in SH2 binding enrichment: 2.05 for the first, 0.958 for the second.

First: VHFARYLAMNK [HARS1_Y138_P134H]
Second: DPLLTYQFPPK [LMNA_Y481_R482Q]
The SH2 binding enrichment of the first is lower: 0.931 for the first, 1.04 for the second.

Going from WKESWYSMRKM [FGB_Y475_G472E] to WCSNDYLGMSQ [ALAS2_Y199_R204Q], the SH2 binding enrichment rises from 1.08 to 1.1.

First: IVGLLYRLLTE [SETX_Y1978]
Second: PSDSGYSYETI [MAP1B_Y1921]
The SH2 binding enrichment of the first is higher: 2.03 for the first, 1.79 for the second.

Going from RGFDTYFGFLL [ARSB_Y165_YF] to YRKNIYNVKST [SYNE2_Y575], the SH2 binding enrichment falls from 0.899 to 0.753.

Going from TTKVSYRASQP [MKI67_Y1737] to LARDMCDKEFF [MET_Y1230_Y1230C_YF], the SH2 binding enrichment falls from 0.962 to 0.778.

First: CTIIHYNFMCN [TP53_Y234_T231I_YF]
Second: PSQRCYVYYYS [PTEN_Y174_R173C]
The SH2 binding enrichment of the first is higher: 1.71 for the first, 0.825 for the second.

Compared with GQRDLYSGLNQ [CD3E_Y199], PEPHIYAVADV [MYO9A_Y216_L211P] is higher in SH2 binding enrichment: 0.852 for the first, 0.909 for the second.

Compared with FEAMEYLESKQ [BTK_Y511_C506Y_YF], YSNVLYRPRGP [TMIGD2_Y197_A202P] is higher in SH2 binding enrichment: 0.641 for the first, 0.717 for the second.

Going from YPKARYRWLVL [APTX_Y214_H215R] to YKGKKYKPLDL [RPL35_Y78], the SH2 binding enrichment falls from 1.08 to 0.821.

Going from TGDVQYRSSVR [FREM2_Y2158] to LNTFHHAGVSA [POLR2A_Y1109_Y1109H], the SH2 binding enrichment falls from 1.02 to 0.956.

Going from AQMAMYFWEMS [TRPM4_Y577_G582S] to VTVLDYDKIGK [SYT1_Y365], the SH2 binding enrichment falls from 1.15 to 0.774.

Compared with TQNGVYSAANF [DDX5_Y535_YF], CYCSWYRGWAP [TIMP3_Y195_G190C] is higher in SH2 binding enrichment: 0.861 for the first, 1.31 for the second.

Going from WQQQSYLDFGI [CTNNB1_Y30_S33F] to TYGNLYGSRKQ [YIPF7_Y59_A54T], the SH2 binding enrichment falls from 0.999 to 0.94.

Going from GPGSGYTNIMR [PKLR_Y564_R559G] to HNGVSYFINLC [IGF2R_Y2024_YF], the SH2 binding enrichment falls from 3.4 to 0.755.

With RKIMGYSIRTI [IDS_Y490_I485R] the SH2 binding enrichment was 0.944.

These sequences were tested against c-Src SH2 in the same assay as above.

Compared with THPFLYLTLEI [MLH1_Y293_S295T], AEKPKYQISNI [TJP1_Y1602_N1605S] is lower in SH2 binding enrichment: 0.623 for the first, 0.503 for the second.

First: KRLFAYKMLMA [TMC2_Y209_Q205R_YF]
Second: GAVDTYCRHNF [HLA-DRB1_Y107_A102G_YF]
The SH2 binding enrichment of the first is higher: 1.51 for the first, 0.68 for the second.

Compared with VHFARYLAMNK [HARS1_Y138_P134H], DPLLTYQFPPK [LMNA_Y481_R482Q] is higher in SH2 binding enrichment: 0.403 for the first, 0.546 for the second.

Compared with WKESWYSMRKM [FGB_Y475_G472E], WCSNDYLGMSQ [ALAS2_Y199_R204Q] is higher in SH2 binding enrichment: 0.708 for the first, 0.717 for the second.

First: IVGLLYRLLTE [SETX_Y1978]
Second: PSDSGYSYETI [MAP1B_Y1921]
The SH2 binding enrichment of the first is lower: 1.89 for the first, 7.7 for the second.

Going from RGFDTYFGFLL [ARSB_Y165_YF] to YRKNIYNVKST [SYNE2_Y575], the SH2 binding enrichment falls from 0.578 to 0.422.

Compared with TTKVSYRASQP [MKI67_Y1737], LARDMCDKEFF [MET_Y1230_Y1230C_YF] is lower in SH2 binding enrichment: 0.533 for the first, 0.475 for the second.

First: CTIIHYNFMCN [TP53_Y234_T231I_YF]
Second: PSQRCYVYYYS [PTEN_Y174_R173C]
The SH2 binding enrichment of the first is higher: 1.23 for the first, 0.286 for the second.

Going from GQRDLYSGLNQ [CD3E_Y199] to PEPHIYAVADV [MYO9A_Y216_L211P], the SH2 binding enrichment rises from 0.822 to 4.08.

First: FEAMEYLESKQ [BTK_Y511_C506Y_YF]
Second: YSNVLYRPRGP [TMIGD2_Y197_A202P]
The SH2 binding enrichment of the first is lower: 0.484 for the first, 0.682 for the second.

Going from YPKARYRWLVL [APTX_Y214_H215R] to YKGKKYKPLDL [RPL35_Y78], the SH2 binding enrichment falls from 0.933 to 0.429.

Going from TGDVQYRSSVR [FREM2_Y2158] to LNTFHHAGVSA [POLR2A_Y1109_Y1109H], the SH2 binding enrichment rises from 0.433 to 0.547.

First: AQMAMYFWEMS [TRPM4_Y577_G582S]
Second: VTVLDYDKIGK [SYT1_Y365]
The SH2 binding enrichment of the first is lower: 0.852 for the first, 2.88 for the second.

Compared with TQNGVYSAANF [DDX5_Y535_YF], CYCSWYRGWAP [TIMP3_Y195_G190C] is higher in SH2 binding enrichment: 0.855 for the first, 1.08 for the second.

Compared with WQQQSYLDFGI [CTNNB1_Y30_S33F], TYGNLYGSRKQ [YIPF7_Y59_A54T] is higher in SH2 binding enrichment: 0.592 for the first, 0.632 for the second.

First: GPGSGYTNIMR [PKLR_Y564_R559G]
Second: HNGVSYFINLC [IGF2R_Y2024_YF]
The SH2 binding enrichment of the first is higher: 7.2 for the first, 0.439 for the second.

In the case of RKIMGYSIRTI [IDS_Y490_I485R], the SH2 binding enrichment is reported as 0.654.
